The results in this text go back to paper PMC11674972.

Values joined by “and” are separate entries in the source; they are usually repeats but may differ in a detail not shown here. Equal values may be shown once.

Experiment [1] has as its target FcγRI (Biotinylated Human CD64 Protein, His, Avitag) (human) (UniProt P12314). The experiment can be described thus: SPR; Biacore T200; biotinylated FcγRI immobilised on streptavidin chip SA (target 200 RU); AVT 1.875-30 nM injected 60 s at 50 uL/min; 1x HBS-EP pH 7.4, 22 °C; double referenced; heterogeneous ligand kinetics model. (SPR reads the build-up and loss of mass on a sensor chip optically.)
UniProt P12314, sequence (P12314 16-292): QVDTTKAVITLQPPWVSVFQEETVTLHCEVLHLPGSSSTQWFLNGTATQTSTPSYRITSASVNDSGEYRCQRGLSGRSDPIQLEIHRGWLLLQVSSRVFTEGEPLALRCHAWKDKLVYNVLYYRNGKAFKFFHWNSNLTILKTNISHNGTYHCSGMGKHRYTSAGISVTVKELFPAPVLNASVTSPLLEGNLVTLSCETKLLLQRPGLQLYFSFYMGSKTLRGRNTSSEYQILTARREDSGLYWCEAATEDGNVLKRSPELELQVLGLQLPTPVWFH

For experiment [2] the target is unchanged. The experiment can be described thus: SPR; Biacore T200; biotinylated FcγRI immobilised on streptavidin chip SA; AVT 1.875-30 nM; 1x HBS-EP pH 7.4, 22 °C; double referenced; steady-state affinity algorithm.
For experiment [3] the target is unchanged. Briefly: SPR; Biacore T200; biotinylated FcγRI immobilised on streptavidin chip SA; AVT 1.875-30 nM; 1x HBS-EP pH 7.4, 22 °C; 1:1 Langmuir binding model (fit poorer than the heterogeneous ligand model).

Bevacizumab (Avastin) (antibody): in experiment [1], the KD, set 1 (heterogeneous ligand model) was 2.67 pM and 1.55 pM and 2.59 pM; the KD, set 1 (heterogeneous ligand model), mean was determined as 2.27 pM; the ka, set 1 (heterogeneous ligand model) was 333000 M⁻¹ s⁻¹ and 276000 M⁻¹ s⁻¹ and 335000 M⁻¹ s⁻¹; the ka, set 1 (heterogeneous ligand model), mean came out at 315000 M⁻¹ s⁻¹. In experiment [1], the kd, set 1 (heterogeneous ligand model) is 8.9e-07 s⁻¹ and 4.27e-07 s⁻¹ and 8.67e-07 s⁻¹; the kd, set 1 (heterogeneous ligand model), mean amounted to 7.28e-07 s⁻¹. In addition, in experiment [2], the Kd (in general, the constant that tells how readily two partners part at equilibrium) turned out to be 13500 pM. In experiment [3], this substance gave a Kd of 420 pM.
